In US20230391893A1 (published 2023) one finds Kd data, which are given here for one molecule.

The target of this assay is dICB-huHF. Kind of assay: flow cytometry; LLC1 cells.

B1: LLC1 (receptor)
chain: TIDTKRNISAEEGGSVILQCHFSSDTAEVTQVDWKQQDQLLAIYSVDLGWHVASVFSDRVVPGPSLGLTFQSLTMNDTGEYFCTYHTYPGGIYKGRIFLKVQESSDDRNGLAQFQTAPLG
Consider B1, for which the Kd (commonly the constant that tells how readily two partners part at equilibrium) worked out at 32.3 nM.
